Measurements taken from US20240398942A1, “USE OF ANTI-CD40 ANTIBODY” (CHIA TAI TIANQING PHARMACEUTICAL GROUP CO., LTD., priority 2021, published 2024).
“And” between values parts separate entries of the source, which are not always exact repeats. Identical values can stand only once. Marks after values point to notes of the source that are not given here.

Assays:
[1] = Protein thermal shift assay (GloMelt); format: physicochemical; settings: 25-99 °C melt curve
Protocol: A thermal stability assay was also conducted on humanized antibody huC1H1-V2. Tm (melting temperature) was determined by protein thermal shift assay using the GloMelt™ thermal shift protein stability kit (Biotium, Cat. No. 33022-T). Briefly, the GloMelt™ dye was thawed to room temperature. The vial containing the dye was vortexed and centrifuged. Then, 5 μL of the 200× dye solution was added to 95 μL of PBS to prepare a 10× dye solution. 2 μL of the 10× dye solution and 10 μg of the humanized antibody were added to the reaction system, and PBS was added to bring the total reaction volume to 20 μL. The centrifuge tubes containing the dye and the antibodies were centrifuged briefly and placed in a real-time PCR thermal cycler (Roche, LightCycler 480 II) in which the parameters of the Melt Curve program are shown in Table 4.

[2] = system: human B-cell lymphoma Ramos cells; experiment: In vivo anti-tumor efficacy, human B-cell lymphoma Ramos xenograft model; settings: for Tumor volume on day 0: baseline at grouping; for Tumor volume on day 0 / Tumor volume on day 14: mean ± standard error; for TGI: day 14; for T/C: day 14 vs isotype control
Protocol: The in vivo anti-tumor activity of antibody huC1H1-V2 was measured in NOD-SCID mice. Briefly, 3×10^7 human B-cell lymphoma Ramos cells (Chinese Academy of Sciences) were injected subcutaneously in the right axilla of NOD-SCID mice. The tumor volume was measured using an electronic vernier caliper and calculated according to the formula (length×width^2)/2. When the mean tumor volume reached about 100-150 mm^3, 40 tumor-bearing mice were selected and randomly divided into 4 groups (10 mice per group), with the date of grouping designated as day 0. According to the administration regimen shown in Table 6, the mice were intravenously administered with the isotype control antibody (anti-HEL-Human IgG2 Isotype-control, also referred to as IgG2, Biointron Inc.) or antibody huC1H1-V2 via tail veins since day 0.

B1: huC1H1-V2: humanized C1H1 anti-CD40 antibody, VH SEQ ID NO: 20 X1=S, VL SEQ ID NO: 24 X1=K X2=F, human IgG2/κ (antibody, V domains shown)
VH: EVQLVESGGGLVKPGGSLRLSCAASGFTFSNYGISWVRQAPGKGLEWVXSISSGGDNTYYPDNVKGRFTISRDNAKNSLYLQMNSLRAEDTAVYYCARAGEKAMDYWGQGTLVTVSS
VL: EIVLTQSPATLSLSPGERATLSCRASQTINNNLHWYQQKPGQAPRLLIXYASQSISGIPARFSGSGSGTDFTLTISSLEPEDFAVYXCQQFSSWPLTFGGGTKVEIK
modifications: not fully specified; variable positions X1=S; VL X1=K X2=F; IgG2/kappa constant; VH of huC1H1-V1 to huC1H1-V4; VARIANT 49 X can be A or S; VL of huC1H1-V1 to huC1H1-V4; VARIANT 49 X can be K or Y; VARIANT 87 X can be F or Y
With B1 the “Tm (melting temperature)” value [1] was 70 °C, the “Tumor volume on day 0” value ([2]; 1.5 mg/kg i.v. Q2D × 8 doses) was 111.1 ± 2.0 mm^3 and the “Tumor volume on day 14” value ([2]; 1.5 mg/kg i.v. Q2D × 8 doses) was 431.9 ± 58.0*** mm^3. For the same molecule, the TGI ([2]; 1.5 mg/kg i.v. Q2D) was 88%, the T/C ([2]; 1.5 mg/kg i.v. Q2D) was 12% and the “Tumor volume on day 0” value ([2]; 5 mg/kg i.v. Q2D × 8 doses) was 114.5 ± 1.5 mm^3. For the same molecule, the “Tumor volume on day 14” value ([2]; 5 mg/kg i.v. Q2D × 8 doses) was 230.2 mm^3 and 230.2 ± 36.3*** mm^3, the TGI ([2]; 5 mg/kg i.v. Q2D) was 96% and the T/C ([2]; 5 mg/kg i.v. Q2D) was 4%. For the same molecule, the “Tumor volume on day 0” value ([2]; 15 mg/kg i.v. Q2D × 8 doses) was 114.3 ± 1.3 mm^3, the “Tumor volume on day 14” value ([2]; 15 mg/kg i.v. Q2D × 8 doses) was 242.5 ± 22.1*** mm^3 and the TGI ([2]; 15 mg/kg i.v. Q2D) was 95%. For the same molecule, the T/C ([2]; 15 mg/kg i.v. Q2D) was 5% and the “Tolerability (weight loss or other symptoms)” value ([2]; 1.5, 5, 15 mg/kg i.v. Q2D × 8 doses, tumor-bearing mice) was “well tolerated”.
